Target: the molecule itself
Assay: cryo-EM structure

B1: human DNA polymerase theta helicase domain (Polθ-HLD), residues 67-940 (domain or fragment, UniProt O75417 67-940, looked up)
chain: DKLLLANWGLPKAVLEKYHSFGVKKMFEWQAECLLLGQVLEGKNLVYSAPTSAGKTLVAELLILKRVLEMRKKALFILPFVSVAKEKKYYLQSLFQEVGIKVDGYMGSTSPSRHFSSLDIAVCTIERANGLINRLIEENKMDLLGMVVVDELHMLGDSHRGYLLELLLTKICYITRKSASCQADLASSLSNAVQIVGMSATLPNLELVASWLNAELYHTDFRPVPLLESVKVGNSIYDSSMKLVREFEPMLQVKGDEDHVVSLCYETICDNHSVLLFCPSKKWCEKLADIIAREFYNLHHQAEGLVKPSECPPVILEQKELLEVMDQLRRLPSGLDSVLQKTVPWGVAFHHAGLTFEERDIIEGAFRQGLIRVLAATSTLSSGVNLPARRVIIRTPIFGGRPLDILTYKQMVGRAGRKGVDTVGESILICKNSEKSKGIALLQGSLKPVRSCLQRREGEEVTGSMIRAILEIIVGGVASTSQDMHTYAACTFLAASMKEGKQGIQRNQESVQLGAIEACVMWLLENEFIQSTEASDGTEGKVYHPTHLGSATLSSSLSPADTLDIFADLQRAMKGFVLENDLHILYLVTPMFEDWTTIDWYRFFCLWEKLPTSMKRVAELVGVEEGFLARCVKGKVVARTERQHRQMAIHKRFFTSLVLLDLISEVPLREINQKYGCNRGQIQSLQQSAAVYAGMITVFSNRLGWHNMELLLSQFQKRLTFGIQRELCDLVRVSLLNAQRARVLYASGFHTVADLARANIVEVEVILKNAVPFKSARKAVDEEEEAVEERRNMRTIWVTGRKGLTEREAAALIVEEARMILQQDLVEMGVQWNPCALLHSSTCSLTHSESEVKEHTFISQTKSSYKKLTSKNKS
In the case of B1, the “stoichiometry N” value is reported as 2.

From publication doi:10.1101/2023.01.20.524915 (bioRxiv, 2023)
